From paper PMC7506551, “A heterotrimeric SMARCB1–SMARCC2 subcomplex is required for the assembly and tumor suppression function of the BAF chromatin-remodeling complex” (Cell Discovery, 2020)

Experiments:
SMARCB1 (aa 169–385) = molecular target: T1, SMARCB1 (aa 169–385) (human, UniProt Q12824 169-385); assay: ITC; conditions not shown; two-site binding model for SMARCC2 325-518 with SMARCB1 169-385; conditions: both partners purified
T1 construct: SMARCB1/BAF47/INI1/SNF5, human, residues 169-385, holds the Rpt1 and Rpt2 motifs; resolved 184-356 in the crystal; they may stand in the supplementary information; also called SMARCB1^(169–385); BAF47

[1] = molecular target: T2, SWIRM domain of SMARCC2 (aa 423–518) (human, UniProt Q8TAQ2 423-518); assay: as above; conditions: both partners purified
T2 construct: SMARCC2/BAF170, human, SWIRM domain, residues 423-518; also called SMARCC2^(423–518); SMARCC2^SWIRM

Row | Kd of one of the two sites (two-site binding model) (SMARCB1 (aa 169–385)) [nM] | Kd [1] [nM] | Binder
1 | 112 | – | SMARCC2 (aa 325–518) (domain or fragment, human, UniProt Q8TAQ2 325-518, looked up, SMARCC2/BAF170, human, residues 325-518, holds the SWIRM domain; resolved 423-514 in the crystal, residues 325-422 possibly degraded during crystallization; Two copies stand in the heterotrimer with one SMARCB1 169-385; also called SMARCC2^(325–518); BAF170) TKSKRGHREEEQEDLTKDMDEPSPVPNVEEVTLPKTVNTKKDSESAPVKGGTMTDLDEQEDESMETTGKDEDENSTGNKGEQTKNPDLHEDNVTEQTHHIIIPSYAAWFDYNSVHAIERRALPEFFNGKNKSKTPEIYLAYRNFMIDTYRLNPQEYLTSTACRRNLAGDVCAIMRVHAFLEQWGLINYQVDAES
2 | – | ~120 | isolated Rpt1 motif of SMARCB1 (domain or fragment) DDHDPAVIHENASQPEVLVPIRLDMEIDGQKLRDAFTWNMNEKLMTPEMFSEILCDDLDLNPLTFVPAIASAIRQQIESYPTDS
